Assay results: the supplement of paper PMC9112550, “Optimization of the antimicrobial peptide Bac7 by deep mutational scanning” (BMC Biology, 2022)

These sequences were tested on Escherichia coli TOP10 (assay: shrunken log2 fold change of peptide-encoding DNA abundance (4.5 h post-induction vs induction); higher = less antimicrobial activity (less host growth inhibition)). Settings: time post-induction: 4.5 h; library: site-saturation at positions 5, 18, 19, 20.
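Note: peptides expressed intracellularly from a pBAD plasmid library in pooled LB shake-flask culture, induced with 0.3% L-arabinose, DNA abundance read by NGS, three biological replicates, DESeq2 with apeglm shrinkage.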

Row | Sequence | shrunken log2 fold change
1 | RRIRARPPRLPRPRPRPQIPPRP | -0.346
2 | RRIRVRPPRLPRPRPRPPMVPRP | 0.0314
3 | RRIRCRPPRLPRPRPRPFYNPRP | -1.05
4 | RRIRWRPPRLPRPRPRPLFRPRP | -0.0807
5 | RRIRTRPPRLPRPRPRPANLPRP | -0.0546
6 | RRIRNRPPRLPRPRPRPTDEPRP | 0.0528
7 | RRIRNRPPRLPRPRPRPFLVPRP | -0.0697
8 | RRIRGRPPRLPRPRPRPISVPRP | -0.0351
9 | RRIRKRPPRLPRPRPRPISNPRP | 0.153
10 | RRIRNRPPRLPRPRPRPQSKPRP | -0.301
11 | RRIRYRPPRLPRPRPRPNWHPRP | -0.575
12 | RRIRIRPPRLPRPRPRPMVRPRP | -0.0105
13 | RRIRTRPPRLPRPRPRPPTNPRP | 0.156
14 | RRIRLRPPRLPRPRPRPKAPPRP | 0.00522
15 | RRIRYRPPRLPRPRPRPIWDPRP | -0.13
16 | RRIRYRPPRLPRPRPRPPIRPRP | -0.121
17 | RRIRTRPPRLPRPRPRPETVPRP | 0.0349
18 | RRIRQRPPRLPRPRPRPCDHPRP | 0.00902
19 | RRIRRRPPRLPRPRPRPYVRPRP | -0.867
20 | RRIRSRPPRLPRPRPRPMEEPRP | -0.01
21 | RRIRERPPRLPRPRPRPFLQPRP | -0.172
22 | RRIRPRPPRLPRPRPRPVTAPRP | 0.385
23 | RRIRYRPPRLPRPRPRPPANPRP | 0.169
24 | RRIRPRPPRLPRPRPRPCYHPRP | -0.428
25 | RRIRTRPPRLPRPRPRPVLRPRP | 0.11

Row | Sequence | shrunken log2 fold change
26 | RRIRGRPPRLPRPRPRPWETPRP | 0.272
27 | RRIRHRPPRLPRPRPRPKYWPRP | -0.2
28 | RRIRCRPPRLPRPRPRPIRTPRP | -0.673
29 | RRIRWRPPRLPRPRPRPHSDPRP | 0.0062
30 | RRIRKRPPRLPRPRPRPFLPPRP | -0.0487
31 | RRIRCRPPRLPRPRPRPGYYPRP | -0.281
32 | RRIRDRPPRLPRPRPRPMMGPRP | 0.0397
33 | RRIRIRPPRLPRPRPRPIMSPRP | 0.0262
34 | RRIRERPPRLPRPRPRPDCYPRP | -0.0856
35 | RRIRKRPPRLPRPRPRPLGNPRP | 0.094
36 | RRIRNRPPRLPRPRPRPPHSPRP | 0.183
37 | RRIRYRPPRLPRPRPRPVITPRP | -0.241
38 | RRIRMRPPRLPRPRPRPQCHPRP | 0.0857
39 | RRIRVRPPRLPRPRPRPEDYPRP | 0.0316
40 | RRIRMRPPRLPRPRPRPNVPPRP | 0.0131
41 | RRIRYRPPRLPRPRPRPKATPRP | -0.00674
42 | RRIRKRPPRLPRPRPRPDLNPRP | 0.332
43 | RRIRCRPPRLPRPRPRPPCAPRP | 0.354
44 | RRIRYRPPRLPRPRPRPRNWPRP | -0.0364
45 | RRIRWRPPRLPRPRPRPGFKPRP | -0.143
46 | RRIRGRPPRLPRPRPRPRETPRP | 1.86
47 | RRIRERPPRLPRPRPRPNWGPRP | 0.00892
48 | RRIRYRPPRLPRPRPRPGIHPRP | -0.467
49 | RRIRCRPPRLPRPRPRPFYSPRP | -0.507
50 | RRIRIRPPRLPRPRPRPRKKPRP | 0.247

Row | Sequence | shrunken log2 fold change
51 | RRIRPRPPRLPRPRPRPVLMPRP | -0.161
52 | RRIRGRPPRLPRPRPRPVMYPRP | 0.237
53 | RRIRKRPPRLPRPRPRPFREPRP | 0.223
54 | RRIRMRPPRLPRPRPRPRFAPRP | 0.728
55 | RRIRPRPPRLPRPRPRPDFRPRP | -0.184
56 | RRIRDRPPRLPRPRPRPDADPRP | 0.0193
57 | RRIRFRPPRLPRPRPRPVPFPRP | -0.102
58 | RRIRARPPRLPRPRPRPWKYPRP | -0.408
59 | RRIRARPPRLPRPRPRPMSWPRP | 0.399
60 | RRIRKRPPRLPRPRPRPGRPPRP | 0.857
61 | RRIRTRPPRLPRPRPRPKRSPRP | 0.207
62 | RRIRDRPPRLPRPRPRPDGDPRP | -0.0107
63 | RRIRRRPPRLPRPRPRPSDFPRP | -0.116
64 | RRIRTRPPRLPRPRPRPDVFPRP | 0.0603
65 | RRIRDRPPRLPRPRPRPRYCPRP | -0.351
66 | RRIRDRPPRLPRPRPRPFYRPRP | 0.03
67 | RRIRKRPPRLPRPRPRPFGMPRP | -0.00211
68 | RRIRTRPPRLPRPRPRPEGVPRP | 0.122
69 | RRIRLRPPRLPRPRPRPFWWPRP | 0.483
70 | RRIRMRPPRLPRPRPRPCIEPRP | -0.122
71 | RRIRCRPPRLPRPRPRPDFNPRP | -0.242
72 | RRIRLRPPRLPRPRPRPMTRPRP | 0.314
73 | RRIRVRPPRLPRPRPRPWCMPRP | -0.468
74 | RRIRLRPPRLPRPRPRPHEAPRP | 0.107
75 | RRIRHRPPRLPRPRPRPPDTPRP | -0.071
